The text below walks through data of patent publication US20230192867A1 (published 2023).

In test [1] the target is T1, huGARP/hLTGF-β complex (human, UniProt P01137 30-390). The test is described as follows: cell-based or functional assay.
The target of test [2] is T1, huGARP/hLTGF-β complex. Nature of the test: flow cytometry on activated primary human Tregs, PE secondary antibody. The method, then:
Anti-huGARP antibodies GARP.2, GARP.3, 1H10, 3H5, 22G8 and a hIgG1 isotype control were incubated at 4° C. for 30 minutes with activated Tregs from a healthy donor in a 96 well plate at a starting concentrations of 40 μg/ml followed by serial dilutions. Activated Tregs were prepared from previously isolated and expanded Tregs stimulated for two days with anti-CD3/CD28 activation beads (ThermoFisher, Waltham, Mass., USA) in the presence of 100 units/mL of recombinant human IL-2. An appropriate PE secondary antibody against the primary anti-GARP antibody was applied and washed off after incubation for 15 minutes at 4° C. Samples were processed on a flow cytometer and PE fluorescence intensities analyzed on FLOWJO® flow cytometry system. EC50 calculations were derived using […] PRISM® data analysis software.

T1 sequence (chain, as listed by the source, form in doubt, chain 1 of 2): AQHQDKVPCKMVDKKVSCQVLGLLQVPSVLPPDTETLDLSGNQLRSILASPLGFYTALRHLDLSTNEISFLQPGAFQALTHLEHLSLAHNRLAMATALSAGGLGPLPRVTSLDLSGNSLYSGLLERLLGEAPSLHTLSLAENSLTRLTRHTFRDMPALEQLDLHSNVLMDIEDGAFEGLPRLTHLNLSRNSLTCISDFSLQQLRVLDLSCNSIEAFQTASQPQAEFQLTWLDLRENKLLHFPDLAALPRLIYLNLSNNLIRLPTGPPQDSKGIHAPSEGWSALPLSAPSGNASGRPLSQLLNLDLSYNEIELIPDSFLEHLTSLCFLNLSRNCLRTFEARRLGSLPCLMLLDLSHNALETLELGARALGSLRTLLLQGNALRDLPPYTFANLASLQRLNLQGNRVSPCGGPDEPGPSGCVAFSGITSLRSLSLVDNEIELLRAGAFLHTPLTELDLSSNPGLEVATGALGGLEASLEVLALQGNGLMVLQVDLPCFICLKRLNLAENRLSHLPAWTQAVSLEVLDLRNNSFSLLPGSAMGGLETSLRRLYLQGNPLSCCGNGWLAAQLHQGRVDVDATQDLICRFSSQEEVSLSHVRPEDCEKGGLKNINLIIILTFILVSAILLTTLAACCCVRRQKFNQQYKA
T1 sequence (P01137 30-390, form in doubt, chain 2 of 2): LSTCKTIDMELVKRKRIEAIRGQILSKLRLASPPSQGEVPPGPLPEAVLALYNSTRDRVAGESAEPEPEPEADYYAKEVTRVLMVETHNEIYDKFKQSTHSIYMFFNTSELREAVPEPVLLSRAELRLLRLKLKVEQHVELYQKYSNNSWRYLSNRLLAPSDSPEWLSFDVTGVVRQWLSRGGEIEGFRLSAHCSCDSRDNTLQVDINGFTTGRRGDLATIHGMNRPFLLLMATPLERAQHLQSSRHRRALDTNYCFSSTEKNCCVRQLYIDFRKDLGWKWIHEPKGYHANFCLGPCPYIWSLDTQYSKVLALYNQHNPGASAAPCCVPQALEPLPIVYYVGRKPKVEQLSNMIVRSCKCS

B1: anti-huGARP mAb 10H7 (antibody, IgG1, V domains shown)
VH: QVQLVESGGGVVQPGRSLRLSCAASEFTFSSYGMYWVRQAPGKGLEWVSIIWHDGSKKYYVDSVKGRFTISRDNSKNTLYLQMNSLRGEDTAVYYCAREQWESWYLDLWGRGTLVTVSS
VL: not shown
On to B1, for which, in test [1], the “TGF-β release (ELISA of soluble TGF-β after six hours, 3A9 cells expressing huGARP/latent TGF-β complex on αvβ8 integrin)” value is 16 fold.

B2: anti-huGARP antibody GARP.2 (antibody, V domains shown)
VH: QVQLVESGGGVVQPGRSLRLSCAASEFTFSSYGMYWVRQAPGKGLEWVSIIWHDGSKKYYVDSVKGRFTISRDNSKNTLYLQMNSLRGEDTAVYYCAREQWESWYLDLWGRGTLVTVSS
VL: not shown
notes: Variant of mAb 10H7 with a human IgG1.1 constant domain in place of the original IgG1; also called 10H7/GARP.2
Broadly, the EC50 is the midpoint of the concentration-response curve. With B2, in test [2], the midpoint of the response, the EC50, lay at 0.61 nM.
